Assay [1] has as its target IL-1β (MRC5 bioassay). Kind of assay: cell-based or functional assay.
Assay [2] concerns the target NGF (Neuroscreen-1 bioassay). As to the kind of experiment: cell-based or functional assay.
For assay [3], the target named is T1, IL-6R on TF-1 cells (UniProt P08887 20-468, limits assumed).
T1 sequence (looked up): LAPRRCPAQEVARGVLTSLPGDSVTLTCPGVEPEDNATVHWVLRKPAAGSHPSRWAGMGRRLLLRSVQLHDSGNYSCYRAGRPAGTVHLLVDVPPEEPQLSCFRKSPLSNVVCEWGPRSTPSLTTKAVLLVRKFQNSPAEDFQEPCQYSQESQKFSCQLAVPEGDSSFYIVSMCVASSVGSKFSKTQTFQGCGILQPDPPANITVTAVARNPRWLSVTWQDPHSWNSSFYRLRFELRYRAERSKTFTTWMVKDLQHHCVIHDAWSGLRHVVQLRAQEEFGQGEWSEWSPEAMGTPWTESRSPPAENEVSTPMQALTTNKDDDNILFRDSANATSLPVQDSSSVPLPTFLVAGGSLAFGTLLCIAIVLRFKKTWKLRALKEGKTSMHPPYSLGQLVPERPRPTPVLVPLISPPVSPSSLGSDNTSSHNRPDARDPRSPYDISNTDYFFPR
Kind of assay: cell-based or functional assay.

Assay [4] has as its target T2, Recombinant Human IL-1β (human, UniProt P01584 117-269).
T2 construct: Bought reagent; also called IL-1b; Il-1b
As to the kind of experiment: SPR (Biacore), DVD-Ig captured on chip, antigen injected, 25 C. On the procedure: The BIACORE assay (Biacore, Inc, Piscataway, N.J.) determines the affinity of antibodies or DVD-Ig with kinetic measurements of on-rate and off-rate constants. Binding of antibodies or DVD-Ig to a target antigen (for example, a purified recombinant target antigen) is determined by surface plasmon resonance-based measurements with a Biacore® 1000 or 3000 instrument (Biacore® AB, Uppsala, Sweden) using running HBS-EP (10 mM HEPES [pH 7.4], 150 mM NaCl, 3 mM EDTA, and 0.005% surfactant P20) at 25° C. All chemicals are obtained from Biacore® AB (Uppsala, Sweden) or otherwise from a different source as described in the text. For example, approximately 5000 RU of goat anti-mouse IgG, (Fcγ), fragment specific polyclonal antibody (Pierce Biotechnology Inc, Rockford, Ill.) diluted in 10 mM sodium acetate (pH 4.5) is directly immobilized across a CM5 research grade biosensor chip using a standard amine coupling kit according to manufacturer's instructions and procedures at 25 μg/ml. Unreacted moieties on the biosensor surface are blocked with ethanolamine. Modified carboxymethyl dextran surface in flowcell 2 and 4 is used as a reaction surface. Unmodified carboxymethyl dextran without goat anti-mouse IgG in flow cell 1 and 3 is used as the reference surface. For kinetic analysis, rate equations derived from the 1:1 Langmuir binding model are fitted simultaneously to association and dissociation phases of all eight injections (using global fit analysis) with the use of Biaevaluation 4.0.1 software. Purified antibodies or DVD-Ig are diluted in HEPES-buffered saline for capture across goat anti-mouse IgG specific reaction surfaces. […] The association and dissociation rate constants, kₒₙ (M⁻¹ s⁻¹) and koff (s⁻¹) are determined under a continuous flow rate of 25 μl/min. […] The equilibrium dissociation constant (M) of the reaction between antibodies or DVD-Igs and the target antigen is then calculated from the kinetic rate constants by the following formula: KD=koff/kₒₙ. Binding is recorded as a function of time and kinetic rate constants are calculated.
In general terms: Surface plasmon resonance follows binding to a sensor surface in real time, without labels.

The target in assay [5] is T3, Recombinant Human IL-6 sR (human, UniProt P08887 20-358, limits assumed).
T3 construct: Bought soluble receptor ('sR'); also called IL-6R
T3 sequence (looked up): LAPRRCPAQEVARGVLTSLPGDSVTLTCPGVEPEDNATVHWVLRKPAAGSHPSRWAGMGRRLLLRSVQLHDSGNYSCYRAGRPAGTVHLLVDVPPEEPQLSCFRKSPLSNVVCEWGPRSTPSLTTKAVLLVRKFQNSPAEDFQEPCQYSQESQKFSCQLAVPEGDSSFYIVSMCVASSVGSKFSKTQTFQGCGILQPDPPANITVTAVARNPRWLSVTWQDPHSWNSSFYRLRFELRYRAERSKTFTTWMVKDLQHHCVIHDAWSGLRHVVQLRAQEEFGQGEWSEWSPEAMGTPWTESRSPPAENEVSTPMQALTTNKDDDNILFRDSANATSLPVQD
As to the kind of experiment: SPR (Biacore), antibody captured on chip, antigen injected, 25 C. As for the experimental part: (§1) The BIACORE assay (Biacore, Inc, Piscataway, N.J.) determines the affinity of antibodies or DVD-Ig with kinetic measurements of on-rate and off-rate constants. Binding of antibodies or DVD-Ig to a target antigen (for example, a purified recombinant target antigen) is determined by surface plasmon resonance-based measurements with a Biacore® 1000 or 3000 instrument (Biacore® AB, Uppsala, Sweden) using running HBS-EP (10 mM HEPES [pH 7.4], 150 mM NaCl, 3 mM EDTA, and 0.005% surfactant P20) at 25° C. All chemicals are obtained from Biacore® AB (Uppsala, Sweden) or otherwise from a different source as described in the text. For example, approximately 5000 RU of goat anti-mouse IgG, (Fcγ), fragment specific polyclonal antibody (Pierce Biotechnology Inc, Rockford, Ill.) diluted in 10 mM sodium acetate (pH 4.5) is directly immobilized across a CM5 research grade biosensor chip using a standard amine coupling kit according to manufacturer's instructions and procedures at 25 μg/ml. Unreacted moieties on the biosensor surface are blocked with ethanolamine. Modified carboxymethyl dextran surface in flowcell 2 and 4 is used as a reaction surface. Unmodified carboxymethyl dextran without goat anti-mouse IgG in flow cell 1 and 3 is used as the reference surface. For kinetic analysis, rate equations derived from the 1:1 Langmuir binding model are fitted simultaneously to association and dissociation phases of all eight injections (using global fit analysis) with the use of Biaevaluation 4.0.1 software. Purified antibodies or DVD-Ig are diluted in HEPES-buffered saline for capture across goat anti-mouse IgG specific reaction surfaces. Antibodies or DVD-Ig to be captured as a ligand (25 μg/ml) are injected over reaction matrices at a flow rate of 5 μl/min. The association and dissociation rate constants, kₒₙ (M⁻¹ s⁻¹) and koff (s⁻¹) are determined under a continuous flow rate of 25 μl/min. Rate constants are derived by making kinetic binding measurements at different antigen concentrations ranging from 10-200 nM. The equilibrium dissociation constant (M) of the reaction between antibodies or DVD-Igs and the target antigen is then calculated from the kinetic rate constants by the following formula: KD=koff/kₒₙ. Binding is recorded as a function of time and kinetic rate constants are calculated.

Assay [6] addresses T4, Recombinant Human β-NGF (human, UniProt P01138 122-241).
T4 construct: Bought reagent
The assay is described as above. On the procedure:
as §1

Some results are limits rather than exact numbers.

Chain of NGF (Neuroscreen-1 bioassay) (P01138 122-241): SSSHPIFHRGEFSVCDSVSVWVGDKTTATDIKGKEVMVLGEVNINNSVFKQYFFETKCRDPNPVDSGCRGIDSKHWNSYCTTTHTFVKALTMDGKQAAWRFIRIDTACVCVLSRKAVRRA
T4 sequence (P01138 122-241 limits assumed): as the sequence (P01138 122-241) above
Chain of IL-1β (MRC5 bioassay) (P01584 117-269): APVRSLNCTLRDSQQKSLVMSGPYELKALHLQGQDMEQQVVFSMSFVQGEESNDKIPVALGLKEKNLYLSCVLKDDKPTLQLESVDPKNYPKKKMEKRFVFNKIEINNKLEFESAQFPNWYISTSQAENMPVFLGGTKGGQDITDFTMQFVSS

B1: DVD949 (bispecific antibody, human IgG1, kappa)
heavy: not shown
light: DIQMTQSPSSLSASVGDRVTITCRASEDIYNALAWYQQKPGKAPKLLIYNTDTLHTGVPSRFSGSGSGTDYTLTISSLQPEDFATYFCQHYFHYPRTFGQGTKVEIKRTVAAPDIQMTQSPSSLSASVGDRVTITCRASGNIHNYLTWYQQTPGKAPKLLIYNAKTLADGVPSRFSGSGSGTDYTFTISSLQPEDIATYYCQHFWSIPYTFGQGTKLQITTVAAPSVFIFPPSDEQLKSGTASVVCLLNNFYPREAKVQWKVDNALQSGNSQESVTEQDSKDSTYSLSSTLTLSKADYEKHKVYACEVTHQGLSSPVTKSFNRGEC
As to B1, in assay [1], the “N-Terminal VD IL-1β Neutralization Assay EC50 nM (IL-8 release by MRC5 cells)” value turned out to be 0.148 nM. The “N-Terminal VD NGF Inhibition Assay EC50 pM (ERK1/2 phosphorylation in Neuroscreen-1 cells)” value in assay [2] amounted to 55 pM.

B2: DVD934 (bispecific antibody, human IgG1, kappa)
heavy: not shown
light: DVLMTQTPLSLPVTPGEPASISCTSSQNIVHSNGNTYLEWYLQKPGQSPQLLIYKVSNRFSGVPDRFSGSGSGTDFTLKISRVEAEDVGVYYCFQVSHVPYTFGGGTKVEIKRTVAAPDIQMTQSPSSLSASVGDRVTITCRASEDIYNALAWYQQKPGKAPKLLIYNTDTLHTGVPSRFSGSGSGTDYTLTISSLQPEDFATYFCQHYFHYPRTFGQGTKVEIKRTVAAPSVFIFPPSDEQLKSGTASVVCLLNNFYPREAKVQWKVDNALQSGNSQESVTEQDSKDSTYSLSSTLTLSKADYEKHKVYACEVTHQGLSSPVTKSFNRGEC
With B2, the “C-Terminal VD NGF Inhibition Assay EC50 pM (ERK1/2 phosphorylation in Neuroscreen-1 cells)” value in assay [2] is over 5000 pM.

B3: DVD1207 (bispecific antibody, human IgG1, kappa)
heavy: not shown
light: DIQMTQSPSSLSASVGDRVTITCRASQDISSYLNWYQQKPGKAPKLLIYYTSRLHSGVPSRFSGSGSGTDFTFTISSLQPEDIATYYCQQGNTLPYTFGQGTKVEIKRTVAAPDIQMTQSPSSLSASVGDRVTITCRASEDIYNALAWYQQKPGKAPKLLIYNTDTLHTGVPSRFSGSGSGTDYTLTISSLQPEDFATYFCQHYFHYPRTFGQGTKVEIKRTVAAPSVFIFPPSDEQLKSGTASVVCLLNNFYPREAKVQWKVDNALQSGNSQESVTEQDSKDSTYSLSSTLTLSKADYEKHKVYACEVTHQGLSSPVTKSFNRGEC
With B3, in assay [2], the “C-Terminal VD NGF Inhibition Assay EC50 pM (ERK1/2 phosphorylation in Neuroscreen-1 cells)” value was over 5000 pM. The “N-Terminal VD IL-6 Inhibition Assay EC50 µM (IL-6 induced pSTAT3 in TF-1 cells)” value in assay [3] is 0.089 µM.

B4: DVD933 (bispecific antibody, human IgG1, kappa)
heavy: not shown
light: DIQMTQSPSSLSASVGDRVTITCRASEDIYNALAWYQQKPGKAPKLLIYNTDTLHTGVPSRFSGSGSGTDYTLTISSLQPEDFATYFCQHYFHYPRTFGQGTKVEIKRTVAAPDVLMTQTPLSLPVTPGEPASISCTSSQNIVHSNGNTYLEWYLQKPGQSPQLLIYKVSNRFSGVPDRFSGSGSGTDFTLKISRVEAEDVGVYYCFQVSHVPYTFGGGTKVEIKRTVAAPSVFIFPPSDEQLKSGTASVVCLLNNFYPREAKVQWKVDNALQSGNSQESVTEQDSKDSTYSLSSTLTLSKADYEKHKVYACEVTHQGLSSPVTKSFNRGEC
Turning to B4, the “N-Terminal VD NGF Inhibition Assay EC50 pM (ERK1/2 phosphorylation in Neuroscreen-1 cells)” value in assay [2] was determined as 49 pM.

B5: DVD950 (bispecific antibody, human IgG1, kappa)
heavy: not shown
light: DIQMTQSPSSLSASVGDRVTITCRASGNIHNYLTWYQQTPGKAPKLLIYNAKTLADGVPSRFSGSGSGTDYTFTISSLQPEDIATYYCQHFWSIPYTFGQGTKLQITTVAAPDIQMTQSPSSLSASVGDRVTITCRASEDIYNALAWYQQKPGKAPKLLIYNTDTLHTGVPSRFSGSGSGTDYTLTISSLQPEDFATYFCQHYFHYPRTFGQGTKVEIKRTVAAPSVFIFPPSDEQLKSGTASVVCLLNNFYPREAKVQWKVDNALQSGNSQESVTEQDSKDSTYSLSSTLTLSKADYEKHKVYACEVTHQGLSSPVTKSFNRGEC
notes: DVD-Ig; also called DVD950H; DVD950L
By Kd is commonly meant the free concentration of one partner at which half of the binding sites on the other are occupied at equilibrium, for simple one-to-one binding. As usually defined, the koff is a measure of how fast the partners let go of each other. The term kon denotes a measure of how fast the partners come together. In the case of B5, in assay [4], the Kd came to 0.495 nM, the koff was determined as 0.000487 s⁻¹ and the kon came out at 983000 M⁻¹ s⁻¹. In addition, the “C-Terminal VD IL-1β Neutralization Assay EC50 nM (IL-8 release by MRC5 cells)” value in assay [1] was found to be 26 nM. In addition, the “C-Terminal VD NGF Inhibition Assay EC50 pM (ERK1/2 phosphorylation in Neuroscreen-1 cells)” value in assay [2] amounted to 316 pM.

B6: AB054 (antibody, V domains shown)
VH: EVQLQESGPGLVRPSQTLSLTCTVSGYSITSDHAWSWVRQPPGRGLEWIGYISYSGITTYNPSLKSRVTMLRDTSKNQFSLRLSSVTAADTAVYYCARSLARTTAMDYWGQGSLVTVSS
VL: DIQMTQSPSSLSASVGDRVTITCRASQDISSYLNWYQQKPGKAPKLLIYYTSRLHSGVPSRFSGSGSGTDFTFTISSLQPEDIATYYCQQGNTLPYTFGQGTKVEIKR
notes: Parent antibody; also called IL-6R parent antibody; AB054VH
On to B6, for which, in assay [5], the Kd is 0.614 nM, the koff was 0.000206 s⁻¹ and the kon amounted to 336000 M⁻¹ s⁻¹. Moreover, the “IL-6 Inhibition Assay EC50 µM (IL-6 induced pSTAT3 in TF-1 cells)” value in assay [3] worked out at 0.07 µM.

B7: AB020 (antibody, V domains shown)
VH: QVQLQESGPGLVKPSETLSLTCTVSGFSLIGYDLNWIRQPPGKGLEWIGIIWGDGTTDYNSAVKSRVTISKDTSKNQFSLKLSSVTAADTAVYYCARGGYWYATSYYFDYWGQGTLVTVSS
VL: DIQMTQSPSSLSASVGDRVTITCRASQSISNNLNWYQQKPGKAPKLLIYYTSRFHSGVPSRFSGSGSGTDFTFTISSLQPEDIATYYCQQEHTLPYTFGQGTKLEIKR
notes: Parent antibody; also called AB020VH
As to B7, in assay [6], the Kd is 0.00673 nM, the koff was 4.08e-06 s⁻¹ and the kon is 606000 M⁻¹ s⁻¹.

The record behind these values is patent US20110091463A1 (AbbVie / Abbott, published 2011).
